First the molecules themselves.
B1: ABTx202 (antibody, human IgG1, V domains shown)
VH: EVQLVESGGGLVQPGRSLRLSCAASGFTFDDYAMHWVRQAPGKGLEWVSGISWNSGTIGYADSVKGRFTSSRDNAKNSLYLEMNSLRAEDTALYYCAKDSPPGYCSSASCYGAFDIWGQGTMVTVSS
VL: EIVMTQSPGTLSLSPGERATLSCRASQSVSSSYLAWYQQKPGQAPRLLIYGSSTRATGIPARFSGSGSGTEFALTISSLQSEDFAVYYCQQYNFWPYTFGQGTKVEIK
B2: ABTx205 (antibody, human IgG1, V domains shown)
VH: B1 VH with S70N
VL: DIVMTQSPSFLSASVGDRVTITCRASQGISSYLAWYQQKPGKAPKLLIYAASTLQNGVPSRFSGSGSGTDFTLTITSLQPEDFATYYCQQSYSTPYTFGQGTKLEIK
B3: ABTx206 (antibody, human IgG1, V domains shown)
VH: B1 VH with S70N, W117R
VL: B2 VL
B4: ABTx203 (antibody, human IgG1, V domains shown)
VH: B1 VH with S70N, S100W, P102S, Y104F, S109Y
VL: B2 VL
B5: ABTx030 (antibody, V domains shown)
VH: QVQLQESGGGLVKPGGSLRLSCAASGFTFSSYSMNWVRQAPGKGLEWVSSIGTISSYIYYADSVKGRFTISRDNAKNSLYLQMNSLRAEDTAVYYCARDYYGGLFDYWGQGTLVTVSS
VL: not shown
B6: ABTx251 (antibody, human IgG1, kappa, V domains shown)
VH: QVQLVQSGAAVKKPGESLKISCKGSGYRFTSYWIGWVRQMPGKGLEWMGIIYPGDSDTRYSPSFQGQVTISAGKSISTAYLQWSSLKASDTAMYYCARHGRGYDGYEGAFDIWGQGTMVTVSS
VL: AIQLTQSPSSLSASVGDRVTITCRASQGISSALAWYQQKPGKAPKLLIYDASSLESGVPSRFSGSGSGTDFTLTISSLQPEDFATYYCQQFYSYPLTFGGGTKVEIKR
B7: ABTx262 (antibody, human IgG1, kappa, V domains shown)
VH: B6 VH with G105A
VL: B6 VL with Y92R, Y94S
B8: ABTx269 (antibody, human IgG1, kappa, V domains shown)
VH: B6 VH with R59K
VL: B6 VL with F91V
B9: ABTx256 (antibody, human IgG1, kappa, V domains shown)
VH: B6 VH with G105A
VL: B6 VL with F91T
B10: ABTx263 (antibody, human IgG1, kappa, V domains shown)
VH: B6 VH with R59K, E107D
VL: B6 VL with F91V
B11: ABTx272 (antibody, human IgG1, kappa, V domains shown)
VH: B6 VH with R59K, E107D
VL: B6 VL with F91V, Y92R
B12: ABTx258 (antibody, human IgG1, kappa, V domains shown)
VH: B6 VH with R59K, G105A
VL: B6 VL with F91V, Y92R
B13: ABTx265 (antibody, human IgG1, kappa, V domains shown)
VH: B6 VH with R59K, E107D
VL: B6 VL with F91T, Y92R
B14: ABTx261 (antibody, human IgG1, kappa, V domains shown)
VH: B6 VH with R59K, G105A
VL: B6 VL with F91T, Y92R
B15: ABTx273 (antibody, human IgG1, kappa, V domains shown)
VH: B6 VH
VL: B6 VL with Y92R
B16: ABTx267 (antibody, human IgG1, kappa, V domains shown)
VH: B6 VH with R59K, G105A, E107D
VL: B6 VL with F91T, Y92N, Y94S
B17: ABTx268 (antibody, human IgG1, kappa, V domains shown)
VH: B6 VH with R59K
VL: B6 VL with F91V, Y92N
B18: ABTx270 (antibody, human IgG1, kappa, V domains shown)
VH: B6 VH with G105A
VL: B6 VL with F91V, Y92R
B19: ABTx052 variant VH_R59K (antibody, human IgG1, V domains shown)
VH: B6 VH with R59K, D104N
VL: B6 VL with Y92N
B20: ABTx052 variant VL_F91T (antibody, human IgG1, V domains shown)
VH: B6 VH with D104N
VL: AIQLTQSPSSLSASVGDRVTITCRASQGISSALAWYQQKPGKAPKLLIYDASSLESGVPSRFSGSGSGTDFTLTISSLQPEDFATYYCQQTNSYPLTFGGGTKVEIK
B21: ABTx052 variant VH_N104D (antibody, human IgG1, V domains shown)
VH: B6 VH
VL: B6 VL with Y92N
B22: ABTx052 variant VL_S93G (antibody, human IgG1, V domains shown)
VH: B6 VH with D104N
VL: B20 VL with T91F, S93G
B23: ABTx052 variant VH_G105A (antibody, human IgG1, V domains shown)
VH: B6 VH with D104N, G105A
VL: B6 VL with Y92N

Changes are numbered by the printed parent chain.

The values that follow come from US20260166085A1 (BEAM THERAPEUTICS, published 2026).

T3 sequence (P10721 26-976 limits assumed): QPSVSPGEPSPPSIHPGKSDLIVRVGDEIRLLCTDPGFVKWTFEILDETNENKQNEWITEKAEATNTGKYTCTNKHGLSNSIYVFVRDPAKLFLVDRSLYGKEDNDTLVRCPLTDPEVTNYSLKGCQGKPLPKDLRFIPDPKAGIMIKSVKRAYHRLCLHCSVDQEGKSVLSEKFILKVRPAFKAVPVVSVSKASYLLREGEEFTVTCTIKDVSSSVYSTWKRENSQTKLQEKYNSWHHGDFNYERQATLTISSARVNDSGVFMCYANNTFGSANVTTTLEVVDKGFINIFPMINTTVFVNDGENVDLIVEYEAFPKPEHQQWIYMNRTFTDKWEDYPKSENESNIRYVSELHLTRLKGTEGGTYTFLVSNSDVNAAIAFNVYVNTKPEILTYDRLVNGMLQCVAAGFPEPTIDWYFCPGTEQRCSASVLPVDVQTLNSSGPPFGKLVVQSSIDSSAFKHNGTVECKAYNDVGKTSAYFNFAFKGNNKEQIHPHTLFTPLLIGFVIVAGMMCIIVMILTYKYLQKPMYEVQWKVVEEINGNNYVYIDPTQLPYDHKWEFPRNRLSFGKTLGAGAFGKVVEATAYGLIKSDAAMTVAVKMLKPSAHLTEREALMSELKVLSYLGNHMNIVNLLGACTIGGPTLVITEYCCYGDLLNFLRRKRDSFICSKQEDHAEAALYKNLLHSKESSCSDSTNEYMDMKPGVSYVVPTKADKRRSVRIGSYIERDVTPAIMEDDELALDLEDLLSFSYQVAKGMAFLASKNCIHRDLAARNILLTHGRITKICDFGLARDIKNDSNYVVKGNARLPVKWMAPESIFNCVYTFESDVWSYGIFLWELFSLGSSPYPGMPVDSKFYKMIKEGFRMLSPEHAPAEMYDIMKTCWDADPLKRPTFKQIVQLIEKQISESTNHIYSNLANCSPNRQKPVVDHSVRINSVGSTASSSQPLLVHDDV
T1 sequence (P10721 26-520 limits assumed): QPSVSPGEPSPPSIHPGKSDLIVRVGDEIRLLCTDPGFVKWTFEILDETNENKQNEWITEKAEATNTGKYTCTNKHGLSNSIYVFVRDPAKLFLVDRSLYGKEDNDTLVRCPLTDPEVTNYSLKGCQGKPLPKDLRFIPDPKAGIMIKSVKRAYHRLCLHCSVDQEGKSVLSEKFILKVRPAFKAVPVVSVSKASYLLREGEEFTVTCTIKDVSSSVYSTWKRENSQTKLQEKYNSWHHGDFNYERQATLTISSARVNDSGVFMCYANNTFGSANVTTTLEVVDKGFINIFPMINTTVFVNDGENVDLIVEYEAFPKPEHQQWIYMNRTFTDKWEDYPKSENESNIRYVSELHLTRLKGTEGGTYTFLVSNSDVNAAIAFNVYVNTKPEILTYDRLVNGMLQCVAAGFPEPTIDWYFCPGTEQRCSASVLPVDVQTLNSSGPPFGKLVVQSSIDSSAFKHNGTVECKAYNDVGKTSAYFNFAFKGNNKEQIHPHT

The first assay concerns the target T1, Wild type CD117 purified protein (human, UniProt P10721 26-520, limits assumed).
T1 construct: Protein used in BLI/kinetics and cryo-EM; also called wt CD117; Wt CD117
Put plainly: summary Table 75 (repeats Table 71).
A word on the Kd: it is the free concentration of one partner at which half of the binding sites on the other are occupied at equilibrium, for simple one-to-one binding. Low values mean a tighter complex, high ones a looser complex. In turn, B1 returned an equilibrium dissociation constant (Kd) of 2.42 nM.

B2 yielded a dissociation constant Kd of 2.07 nM.

B3 displayed a Kd of 1.26 nM.

Take B4: the equilibrium dissociation constant (Kd) amounted to 6.62 nM.

In the next assay the target is T1, Wild type CD117 purified protein. Put plainly: monovalent KD, CD117 titrated (FIGS. 73A-73E).
As usually defined, the koff is the rate constant with which the complex falls apart. Lower therefore signals a long-lived complex. One may read the kon as the second-order rate constant of association. As to B1, the dissociation constant Kd came out at 2.42 nM, the off-rate (koff) came out at 0.00014 s⁻¹ and the on-rate constant (kon) stood at 57800 M⁻¹ s⁻¹.

With B2, the Kd is 2.07 nM, the koff amounted to 0.000117 s⁻¹ and the kon worked out at 56600 M⁻¹ s⁻¹.

Consider B3, for which binding was put at a Kd of 1.26 nM, the koff stood at 5.07e-05 s⁻¹ and the association rate constant (kon) amounted to 40300 M⁻¹ s⁻¹.

On to B4, for which binding was characterised by a dissociation constant (Kd) of 6.62 nM, the koff worked out at 0.000643 s⁻¹ and the kon was determined as 97100 M⁻¹ s⁻¹.

The target is the same in a further assay. Put plainly: KD, method not stated (Table 8B).
Molecule B5 returned a Kd of 0.449 nM.

In the next assay the target is T2, Cyno CD117 (cynomolgus, UniProt F6V858 26-520 (rhesus entry)).
T2 construct: also called cynomolgus CD117
T2 sequence (chain, as listed by the source): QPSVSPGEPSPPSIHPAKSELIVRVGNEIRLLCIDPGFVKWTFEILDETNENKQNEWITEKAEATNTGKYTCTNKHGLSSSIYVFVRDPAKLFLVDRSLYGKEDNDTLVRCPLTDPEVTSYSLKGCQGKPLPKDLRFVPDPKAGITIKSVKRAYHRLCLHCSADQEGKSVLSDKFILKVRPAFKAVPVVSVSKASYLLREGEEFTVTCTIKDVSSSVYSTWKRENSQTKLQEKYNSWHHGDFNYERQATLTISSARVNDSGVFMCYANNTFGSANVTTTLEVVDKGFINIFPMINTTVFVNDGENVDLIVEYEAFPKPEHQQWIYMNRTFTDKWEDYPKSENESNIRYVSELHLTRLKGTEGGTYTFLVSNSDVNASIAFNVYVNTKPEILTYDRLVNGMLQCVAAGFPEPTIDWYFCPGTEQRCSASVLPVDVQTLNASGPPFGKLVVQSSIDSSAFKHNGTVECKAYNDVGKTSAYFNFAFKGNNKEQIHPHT
The assay is described as follows: KD, method not stated (Table 8B).
Turning to B5, the dissociation constant Kd was determined as 0.83 nM.

A further assay concerns the target T3, Wild type CD117 expressed on cells (M07e cells, unedited human CD34+ HSPCs) (human, UniProt P10721 26-976).
T3 construct: Endogenous receptor on cells; also called wtCD117; WT CD117
Put plainly: flow cytometry on M07e cells, AF647 secondary (FIG. 76A). (In flow cytometry, cells or beads pass a laser one at a time.)
By EC50 is commonly meant the concentration that produces a half-maximal response. A low value points to a more potent agent. B1 came in with an EC50 of 7.98 nM.

In turn, B2 registered an EC50 of 7.48 nM.

The molecule B3 returned an EC50 of 14.2 nM.

In turn, B4 came in with a 50% effective concentration (EC50) of 5.56 nM.

A further assay deals with T4, CC128 variant of CD117 (Y259C + N260D) purified protein (human, UniProt P10721 26-520, limits assumed).
T4 construct: also called CC128-edited CD117 as purified protein
T4 sequence (P10721 26-520 Y259C/N260D limits assumed): as the sequence (P10721 26-520 limits assumed) above, with Y234C, N235D counted along it
The assay is described as follows: binding kinetics grade, FIGS. 55A-55C.
Consider B6, for which the binding result is “no binding”.

Turning to B7, the binding result is recorded as “no binding”.

As for B8, the binding result is listed as “no binding”.

Turning to B9, the binding result is given as “no binding”.

Regarding B10, the binding result is “no binding”.

Regarding B11, the binding result was “no binding”.

On to B12, for which the binding result is “no binding”.

On to B13, for which the binding result is given as “no binding”.

Consider B14, for which the binding result is on record as “no binding”.

Take B15: the binding result is recorded as “no binding”.

As to B16, the binding result is on record as “no binding”.

As to B17, the binding result is on record as “no binding”.

Consider B18, for which the binding result was “no binding”.

Another assay deals with T5, CC200 variant of CD117 (S261G) purified protein (human, UniProt P10721 26-520, limits assumed). Put plainly: binding kinetics grade, FIGS. 55A-55C.
T5 sequence (P10721 26-520 S261G limits assumed): as the sequence (P10721 26-520 limits assumed) above, with S236G counted along it
Regarding B6, the binding result is recorded as “no binding”.

Regarding B7, the binding result was “no binding”.

Take B8: the binding result is on record as “no binding”.

Turning to B9, the binding result is reported as “no binding”.

On to B10, for which the binding result is “no binding”.

Take B11: the binding result was “no binding”.

On to B12, for which the binding result was “no binding”.

With B13, the binding result is recorded as “no binding”.

As for B14, the binding result is given as “no binding”.

For the molecule B15, the binding result is “no binding”.

Regarding B16, the binding result is recorded as “no binding”.

For B17, the binding result was “no binding”.

As for B18, the binding result is on record as “no binding”.

A further assay deals with T4, CC128 variant of CD117 (Y259C + N260D) …. Put plainly: binding kinetics, FIGS. 45A-45K.
Regarding B19, the binding result was “no binding”.

For the next assay, the target named is T1, Wild type CD117 purified protein. Put plainly: binding kinetics, FIGS. 45A-45K.
B20 returned a dissociation constant Kd of 0.191 nM, an off-rate constant (koff) of 0.000104 s⁻¹ and a kon of 543000 M⁻¹ s⁻¹.

In the case of B21, the dissociation constant Kd was found to be 0.495 nM, the off-rate (koff) stood at 0.000342 s⁻¹ and the association rate constant (kon) was found to be 691000 M⁻¹ s⁻¹.

In the case of B22, the Kd was determined as 0.0716 nM, the koff was found to be 4.81e-05 s⁻¹ and the kon is 671000 M⁻¹ s⁻¹.

Take B23: the dissociation constant (Kd) worked out at 0.254 nM, the koff amounted to 0.000153 s⁻¹ and the on-rate constant (kon) came out at 601000 M⁻¹ s⁻¹.

For B19, the affinity, expressed as Kd, was 0.986 nM; the koff turned out to be 0.000713 s⁻¹; the on-rate (kon) is 723000 M⁻¹ s⁻¹.

A further assay concerns the target T5, CC200 variant of CD117 (S261G) purified …. The assay is described as follows: binding kinetics, FIGS. 45A-45K.
Turning to B19, the binding result was “no binding”.

For a further assay, the target named is T3, Wild type CD117 expressed on cells …. Put plainly: summary Table 75 (repeats Table 73).
As for B1, a half-maximal response (EC50) required 7.98 nM.

The molecule B2 yielded an EC50 of 7.48 nM.

Turning to B3, the EC50 came out at 14.2 nM.

On to B4, for which the concentration giving a half-maximal response (EC50) amounted to 5.56 nM.
